Data published in patent publication US20050118615A1 (COMPUGEN, published 2005).

Legend:
[1] = target: T1, recombinant human BMP-4 (R&D Systems) (human, UniProt P12644 293-408); experiment: pull-down on Talon metal affinity resin with immobilised His-hCHL2, immunoblot with anti-BMP2/4 antibody
T1 construct: Bought reagent
T1 sequence (looked up): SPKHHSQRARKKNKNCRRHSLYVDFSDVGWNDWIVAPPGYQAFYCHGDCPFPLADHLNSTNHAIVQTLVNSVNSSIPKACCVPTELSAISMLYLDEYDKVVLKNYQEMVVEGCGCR
Text: (§1) Protein binding assays with His-tagged hCHL2 protein Culture media of COS7 cells, transfected with hCHL2 cloned in pcDNA4/His, or empty vector (see above), were collected every 24 hrs, beginning at 48 hrs after transfection for a total of 96 hrs, and concentrated 10-fold by ultrafiltration through a YM Millipore membrane under nitrogen pressure (Millipore, Bedford, Mass.) before binding of secreted His-tagged hCHL2 to BD TALONTM Metal Affinity Resin (Clontech, Palo Alto, Calif.). The resin was added to the concentrated medium, rotated for 30 min at room temperature, and then washed twice with loading buffer (50 mM NaH₂PO₄, pH 8, 300 mM NaCl, 5 mM imidazole) and resuspended in 200 μl of binding buffer (1 mM CaCl₂, 3 mM MgCl₂, 0.2% NP-40, 1 mg/ml BSA in PBS). The His-hCHL2, immobilized on the resin, was incubated with 200 ng of recombinant human BMP-2, -4, -6 or Activin A (all purchased from R&D Systems), while rotating for 1 hr at room temperature, and then washed once with binding buffer and twice with binding buffer supplemented with 0.2% Tween. […]
(§2) COS-7 cells were transfected with a pcDNA4 (Invitrogen, Carlsbad, Calif.) vector expressing His-tagged hCHL2 (coding region corresponding to variant II, SEQ ID NO:6), and the culture media were collected for 72 hrs. […] No interaction was detected with any of the other proteins tested (BMP-2, 4, or 6).

[2] = target: T2, recombinant human BMP-2 (R&D Systems) (human, UniProt P12643 283-396); experiment: as above
T2 construct: Bought reagent
Text: as §1, §2

[3] = target: T3, recombinant human BMP-6 (R&D Systems) (human, UniProt P22004 382-513, limits assumed); experiment: pull-down on Talon metal affinity resin with immobilised His-hCHL2, immunoblot with anti-BMP-6 antibody
T3 construct: Bought reagent
T3 sequence (looked up): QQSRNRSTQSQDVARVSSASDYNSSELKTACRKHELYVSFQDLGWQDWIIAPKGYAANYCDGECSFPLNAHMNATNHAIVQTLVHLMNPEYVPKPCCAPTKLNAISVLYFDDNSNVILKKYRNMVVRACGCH
Text: as §1, §2

Measured: binding result

T2 sequence (P12643 283-396 limits assumed): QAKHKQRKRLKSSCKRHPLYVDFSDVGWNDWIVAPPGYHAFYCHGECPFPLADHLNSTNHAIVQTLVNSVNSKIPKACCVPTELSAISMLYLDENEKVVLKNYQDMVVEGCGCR

B1: His-tagged hCHL2 (variant II), secreted from COS-7 cells transfected with pcDNA4/myc-His-hCHL2 (other, not shown: small tags and cut ends)
chain: RARPDMFCLFHGKRYSPGESWHPYLEPQGLMYCLRCTCSEGAHVSCYRLHCPPVHCPQPVTEPQQCCPKCVEPHTPSGLRAPPKSCQHNGTMYQHGEIFSAHELFPSRLPNQCVLCSCTEGQIYCGLTTCPEPGCPAPLPLPDSCCQACKDEASEQSDEEDRVQSLHGVRHPQDPCSSDAGRKRGPGTPAPTGLSAPLSFIPRHFIPKGAGSTTVKIVLKEKHKKACVHGGKTYSHGEVWHPAFRAFGPLPCILCTCEDGRQDCQRVTCPTEYPCRHPEKVAGKCCKICPEDKADPGHSEISSTRCPKAPGRVLVHTSVSPSPDNLRRFALEHEASDLVEIYLWKLVKDEETEAQRGEVPGPRPHSQNLPLDSDQESQEARLPERGTALPTARWPPRRSLERLPSPDPGAEGHGQSRQSDQDITKT
notes: also called His-tagged hCHL2 protein
no binding (tested: 200 ng): all assays above
